According to the supplement of paper PMC9170038:

Key:
MS2 coat protein [1] = assay: apparent KD of MS2 coat protein, switch ON state; designed switch direction (-1 OFF switch, 1 ON switch): -1; higher = weaker reporter binding; settings: FMN input: 0 or 200 uM; Eterna round: R93 (includes R88 designs)
Summary of the method: (§1)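 The designed RNA switches were transcribed on-chip from Illumina sequencing clusters. In 100 mM Tris-HCl pH 7.5, 80 mM KCl and 4 mM MgCl2, without or with constant ligand, they were titrated with SNAP-549-labelled MS2 coat protein from 0.7 or 1.5 nM to 3 µM in twofold steps. Apparent KD is the per-design median of normalised cluster binding-curve fits.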

MS2 coat protein [2] = assay: apparent KD of MS2 coat protein, switch OFF state (with FMN for OFF switches, without FMN for ON switches); designed switch direction (-1 OFF switch, 1 ON switch): -1; higher = weaker reporter binding; settings: FMN input: 0 or 200 uM; Eterna round: R93 (includes R88 designs)
Summary of the method: as §1

Sequence | apparent KD of MS2 coat protein (MS2 coat protein [1]) | apparent KD of MS2 coat protein (MS2 coat protein [2])
AAAUAGUUAGGAUAUACAUGAGGAUCACCCAUGUGCACGUAUGGAGAAUAUGGUAAUGGUAGAAGGGACUAAAA [EX2 Malc#21] | 44.5 nM | 76.5 nM
AAAUGAUGAGGAUAUACAUGAGGAUCACCCAUGUGUAAAAAUAAAUACACAAAAGAAAGUAGAAGGCAUCAAAA [Ex 3 May 12] | 22.7 nM | 99 nM
AAAUGCUGAGGAUAUACAUGAGGAUCACCCAUGUAAAAUAAAUAAUAGGUGUAAACGUGUAGAAGGCAGCAUAA [Exclusion 3.14a (FMN+ favored )] | 62.6 nM | 27.5 nM
AAAUUAGCAGGAUAUACUAGGGUCCACCGAACUCUGAAAAGACAUGAGGAUCACCCAUGUAGAAGGGCUUCGAA [Atileso] | 30 nM | 97.6 nM
AACAAGACAGGAUAUACAUGAGGAUCACCCAUGUGAGAAUAAAGUAGCGUAACACAAAGUAGAAGGGUCAUGGA [Ruby 7] | 29.7 nM | 57.6 nM
AACAAGUGAGGAUAUCGGAAAAGAAAAUAAGAUACACAAAACGAGAAGGCACAUGAGGAUCACCCAUGUAAAUA [JR_Exc004_Sub012] | 35.9 nM | 41.5 nM
AACAGCACAGGAUAUACAUGAGGAUCACCCAUGUGAGAAUUAAGUGGCGUACCACAAAGUAGAAGGGUGCUGGA [Mat - Exclusion 3 - JL mod - D39] | 35.9 nM | 203 nM
AACAGGACAGGAUAUACAUGAGGAUCACCCAUGUAGGAACAAAGCAGAGUACCAAACAGUAGAAGGGUCAUGGA [Ruby 28] | 34.2 nM | 37.2 nM
AACAGGACAGGAUAUACAUGAGGAUCACCCAUGUGAAGAUUAAGAAGAAAACCACAAAGUAGAAGGGUCCUGGA [Ruby 94] | 35.1 nM | 79.2 nM
AACAGGUCAGGAUAUGUGGAAAAAAUAAAAAAAAUAAAAACACAGAAGGGACAUGAGGAUCACCCAUGUUAACA [May 25] | 36.6 nM | 38.8 nM
AACAGUACAGGAUAUACAUGAGGAUCACCCAUGUAAAAUAAAUAAAAAUAAAAAGGGAGUAGAAGGGUACUGGA [Moding Maslow revisited (73) 19] | 37.2 nM | 50.3 nM
AACAGUACAGGAUAUACAUGAGGAUCACCCAUGUGAAAAUUAAGUGGAAAACCACAAGGUAGAAGGGUACUGGA [Mat - Exclusion 3 - Eli mod - D63] | 21.6 nM | 78.7 nM
AACAGUACAGGAUAUACAUGAGGAUCACCCAUGUGAAAAUUAAGUGGCGAACCACAAAGUAGAAGGGUACUGAA [Mat - Exclusion 3 - Eli mod - D56] | 38.7 nM | 79.3 nM
AACAGUACAGGAUAUACAUGAGGAUCACCCAUGUGAAAUAAAAGUGGCGUACCACAAAGUAGAAGGGUACUGAA [Mat - Exclusion 3 - JL mod - D27] | 27.1 nM | 90.5 nM
AACAGUACAGGAUAUACAUGAGGAUCACCCAUGUGAGAAUUAAGUGGAGAACCACAAAGUAGAAGGGUACUGGA [Mat - Exclusion 3 - JL mod - D2] | 37.1 nM | 250 nM
AACAGUACAGGAUAUACAUGAGGAUCACCCAUGUGGGAAUUAAGUGGCGUACCACAAAGUAGAAGGGUACUGGA [Moding Maslow revisited (73)] | 72.5 nM | 172 nM
